Source: the supplement of paper PMC7877785
± gives the uncertainty stated by the source.

Assay: self-splicing fitness, log relative to wild type (ln ratio); higher = more splicing; Tetrahymena group I intron in knt gene, E. coli kanamycin selection, DiMSum; sequences stand for … in CUCUCU…GGAGGGAAAAGUUAUCAGGCAUGCACCUGGUAGCUAGUCUUUAAACCAAUAGAUUGCAUCGGUUUAAAAGGCAAGACCGUCAAAUUGCGGGAAAGGGGUCAACAGCCGUUCAGUACCAAGUCUCAGGGGAAACUUUGAGAUGGCCUUGCAAAGGGUAUGGUAAUAAGCUGACGGACAUGGUCCUAACCACGCAGCCAAGUCCUAAGUCAACAGAUCUUCUGUUGAUAUGGAUGCAGUUCACAGACUAAAUGUCGGUCGGGGAAGAUGUAUUCUUCUCAUAAGAUAUAGUCGGACCUCUCCUUAAUGGGAGCUAGCGGAUGAAGUGAUGCAACACUGGAGCCGCUGGGAACUAAUUUGUAUGCGAAAGUAUAUUGAUUAGUUUUGGAGUACUCGUGGUCG
How it was run: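 DiMSum derived fitness as the error-weighted combination of fold changes across replicates, kanamycin versus no kanamycin, normalised to wild type. E. coli BL21(DE3) held the library, which randomised all eight P1ex-region intron nucleotides within the knt kanamycin-resistance gene on pET-22b(+). Six replicate transformations grew overnight at 37°C or 30°C on LB agar with or without 25 μg/mL kanamycin, also containing 100 μg/mL carbenicillin, 50 μM IPTG and 0.2% rhamnose, and pooled colonies were amplicon-sequenced on an Illumina HiSeq 2500.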

Row | Sequence | self-splicing fitness (ln) (30 °C) | self-splicing fitness (ln) (37 °C)
1 | ACCCAGCAAUAUUACGCGCU | -1.91 ± 0.097 | -1.36 ± 0.11
2 | ACCCAGCAAUAUUACGGCAA | -0.219 ± 0.056 | -0.263 ± 0.068
3 | ACCCAGCAAUAUUACGGCAG | -3.84 ± 0.21 | -2.74 ± 0.18
4 | ACCCAGCAAUAUUACGGGGG | -3.46 ± 0.17 | -2.43 ± 0.15
5 | ACCCAGCAAUAUUACGGGUA | -2.54 ± 0.11 | -1.66 ± 0.084
6 | ACCCAGCAAUAUUACGGUAA | -1.26 ± 0.09 | -0.477 ± 0.087
7 | ACCCAGCAAUAUUACGUAUA | -2.2 ± 0.092 | -1.2 ± 0.085
8 | ACCCAGCAAUAUUACGUGCA | -0.703 ± 0.067 | -0.601 ± 0.072
9 | ACCGAGCAAUAUUACGAAAU | -2.68 ± 0.27 | -2.76 ± 0.34
10 | ACCGAGCAAUAUUACGACAG | -2.88 ± 0.17 | -2.41 ± 0.39
11 | ACCGAGCAAUAUUACGAGAA |  | -1.8 ± 0.29
12 | ACCGAGCAAUAUUACGAUUG | -3.69 ± 0.17 | -2.02 ± 0.18
13 | ACCGAGCAAUAUUACGCCAU | -4.46 ± 0.36 | -2.05 ± 0.22
14 | ACCGAGCAAUAUUACGCCUG | -3.61 ± 0.24 | -2.44 ± 0.17
15 | ACCGAGCAAUAUUACGCUCU | -0.43 ± 0.14 | -1.25 ± 0.16
16 | ACCGAGCAAUAUUACGCUUG | -3.65 ± 0.21 | -2.17 ± 0.26
17 | ACCGAGCAAUAUUACGGAAC | -3.03 ± 0.29 | -1.63 ± 0.21
18 | ACCGAGCAAUAUUACGGGAC | -2.88 ± 0.13 | -2.49 ± 0.18
19 | ACCGAGCAAUAUUACGGGCU | -3.3 ± 0.16 | -2.59 ± 0.19
20 | ACCGAGCAAUAUUACGGGGA | -1.87 ± 0.1 | -1.65 ± 0.1
21 | ACCGAGCAAUAUUACGGGGG | -3.8 ± 0.18 | -3.18 ± 0.2
22 | ACCGAGCAAUAUUACGGGGU | -3.7 ± 0.17 | -2.46 ± 0.17
23 | ACCGAGCAAUAUUACGGUAU | -3.76 ± 0.2 | -1.81 ± 0.14
24 | ACCGAGCAAUAUUACGUAGC | -3.46 ± 0.16 | -1.61 ± 0.15

Row | Sequence | self-splicing fitness (ln) (30 °C) | self-splicing fitness (ln) (37 °C)
25 | ACCGAGCAAUAUUACGUUCC | -2.7 ± 0.26 | -1.66 ± 0.23
26 | ACCGAGCAAUAUUACGUUUA | -3.4 ± 0.27 | -2.39 ± 0.18
27 | ACCUAGCAAUAUUACGAAGA | -2.01 ± 0.19 | -1.77 ± 0.13
28 | ACCUAGCAAUAUUACGACAG | -2 ± 0.089 | -1.34 ± 0.12
29 | ACCUAGCAAUAUUACGACGG | -1.3 ± 0.089 | -0.541 ± 0.14
30 | ACCUAGCAAUAUUACGAUAC | -3.47 ± 0.25 | -1.65 ± 0.2
31 | ACCUAGCAAUAUUACGAUUU | -0.879 ± 0.064 | -0.0104 ± 0.079
32 | ACCUAGCAAUAUUACGCAGA | -2.23 ± 0.09 | -1.11 ± 0.082
33 | ACCUAGCAAUAUUACGCGGA | -1.04 ± 0.085 | -0.0825 ± 0.086
34 | ACCUAGCAAUAUUACGCUUA | -1.73 ± 0.11 | -0.883 ± 0.1
35 | ACCUAGCAAUAUUACGCUUG | -3.5 ± 0.16 | -2.04 ± 0.16
36 | ACCUAGCAAUAUUACGGACU | -0.424 ± 0.059 | 0.508 ± 0.069
37 | ACCUAGCAAUAUUACGGAUA | -1.65 ± 0.11 | -1.59 ± 0.099
38 | ACCUAGCAAUAUUACGGAUU | -1.23 ± 0.072 | 0.134 ± 0.088
39 | ACCUAGCAAUAUUACGGGUG | -1.47 ± 0.071 | -1.1 ± 0.087
40 | ACCUAGCAAUAUUACGGUGA | -1.86 ± 0.079 | -0.814 ± 0.074
41 | ACCUAGCAAUAUUACGUACA | -1.31 ± 0.14 | -0.964 ± 0.17
42 | ACCUAGCAAUAUUACGUAUC | -2.83 ± 0.083 | -1.85 ± 0.1
43 | ACCUAGCAAUAUUACGUCCA | -1.53 ± 0.098 | -0.615 ± 0.094
44 | ACCUAGCAAUAUUACGUCCC | -1.37 ± 0.26 | 
45 | ACCUAGCAAUAUUACGUCGA | -2.29 ± 0.093 | -0.834 ± 0.091
46 | ACCUAGCAAUAUUACGUGAC | -3.2 ± 0.12 | -0.892 ± 0.11
47 | ACCUAGCAAUAUUACGUGGC | -3.35 ± 0.21 | -2.02 ± 0.21
48 | ACCUAGCAAUAUUACGUUAG | -3.59 ± 0.14 | -2.69 ± 0.19
